Test results taken from patent publication US20260117244A1, “INHIBITORY RNA FOR THE CONTROL OF PHYTOPATHOGENS” (priority 2021, published 2026).

Tested on: G. orontii MGH1
Test: Spray-induced gene silencing (SIGS), G. orontii spore production on A. thaliana (whole plant and detached leaf assays)
Type: in vivo, Golovinomyces orontii
Conditions: topical dsRNA against G. orontii target (Gor Seq ID), n>=3

| Molecule | G. orontii Spore Production on Arabidopsis, Detached Leaf Assay, % reduction [%] | G. orontii Spore Production on Arabidopsis, Whole Plant Assay, % reduction [%] |
| --- | --- | --- |
| 167 (nucleic acid, listed as Golovinomyces orontii, listed as DNA) ATGCTTCTAACTAAGATTCACACCGCACCAGAACTAGACTCATTTACAGCACTCGAAGATCATCAATCAAAGACTCCCGACAAATTTTATGAAACGAAACCTGTCCTATACTTTCATGACAATAATGCCAGAGCTCTTATCGTCAAAAGTCAGCTTGTCAAATTACCCATCTGTGAATTAAATTCTTCGGAAAATGAACCTGAATCAAGCCCAAAAATAGCTAATGTCGAAGTGTTTGTCAATTCCCAGAAATTGATTATATTTAACCCTGTCGAATGCATTGGCTACGCTATTCCCTACTCAGCGATTACTCTTCATGCTATCCAGAGATTAAAAGATCCAATAGATTCATATCTGGAAATACAAGGACTCTACATGCAAATAAATATATCAGATTGCAGTGGTGACGAACAACAAGATGAAGATTCGACCTATGTAGATCTAACTCTCATACCATCACTCAACTCTGATACCATAACTAAACCAAGAATCCAAACACTCTACGAGGCGGTCTCTGCCTGTTCCGACTTAAATCCTGACTTGAATCCGGAAGACGATGGGATAACTGAAGATGTAGGTGAAGAATCTAGGATAATATTTGAAGGCACTGATGGTCTTCCTGGTGTTTTCAACGGCGGATCAGATGGCAACCTCCCACCGCCGTTTCCTGGTAGTGGGGGATGGATAACAGCTGAGAATATGTCTCAATTTTTAGACGAAGAAGGTAATTGGATTGGGAAAAGCGATAACGGTGAGGATTCAATGGTTATCGGATAA | 39 | – |
| 124 (nucleic acid, listed as Golovinomyces orontii, listed as DNA) ATGTTCCTCAGAGCTTCGTTGACCTTCTGGGCTCTCTTGGCCACAGAGATAAGTCTGTCCACGACAGCCTCCGTTAGACGACTGGAGAATCGCGAGGTTGTTGACGATATTAATGACAATGGAATCATGATTGAGTGGGCAAGATGCAAAGGTAGACACTACGATAAAGATGAAATATATGAAACGCTCAAACAAGCTTGTGAGACGAAAAATTCATCTACCATTTTTGAAAAAGCCGTCAATCTTCGTCCACATATCCCATCGTCATCAGAGAAGTATCATCATGAGATCAACCCTCCCTACTACGCGTACTCTCTGCATGATACCGTATTCAAAGATAAACTACATCCAATCGATGTTATCGTGATGAACGATGAATGTAAGCTGGCTGGTGTACTCATGGAGACCACCAAGATCAGCTGCAACGACGACACGTGCGGCTCCGAACCCCGGTACAAAGATTGTGAGATCCGATTAACGAAAACCGCTCCGACGTCGACAGAGACGACTCAGGTTGCGGAATTGTCTTGA | – | 33 |
| 123 (nucleic acid, listed as Golovinomyces orontii, listed as DNA) ATGTTGTGCTTCATTTCCATCTTCACAACAGCTCTCCTAATCTCTCCCTCCCTAGGAGTTAATTCAGCTCAGAACGGCGAAACTCCCGATGACGATTCATTAGGTTCTACGAAACACATGAACTTTGGCTCTGGTCTCTCTGAATTCAATGCTCATGAAGATATGTATGTTCCTGCCATGGATCTGAATGGGTTTAGAATAAAGCGACGACATTTTCAAAATGAAGGCTATTACTGCAGCAAATCGCGCAATCACCTCGAATTTACAAATCAATCTTTCGTGAAGAATGAAGCTAAGAAGGCATGCAAGGGTCTTGAAAGGTCAAAACACGAACACAAACACGAACATGAACATGAGCACGAAGATAAACATGAATATAAAGAATATGAAGAAGAAGAAGAAGAAGAAGAAGAAGAAGAAGAAGAAGAAAATAAAATAAAAAAAGGAAAGAAAGGAAAGAAACATTCCGATTACCCTCATCCATACAATGCAGTCAAATATGTAAAATATTCCCCACCATACTTCGAACACCGAATCCATGATGTGAAGAAAAATAAATCAGGTCTGAGCGTCATCATAGATATCGACTGTCATATTGTTGATGTTGTTGCTCTCAACCAAGATAAACGATACCATCAATGTGCCCGTGCATGA | 38 | 32 |
| 169 (nucleic acid, listed as Golovinomyces orontii, listed as DNA) ATGGATATGGATATGAATATGAGCACAGGAATGAATGCAAGTCCAATAATCGGAGGCAACGAAGTCCATTCACATCCAATGGATATGGGAAGGGATATGTCGATGACTTTTTTTAATGGCATGACAACTAAACTCTATACCTCGACGTGGGCACCAAAAAGTTTAGGCACTTATATAGCGACTTGTTTATTTCTCATCGCTTTATCCAGCATATCTAGGTTTCTATTAGCCGCCAAGTTATGGCTAGAAACAACTTGGATGAACGCTGAGCTCAATCGAAAATATGTTACGGCTGCTGGAAAAGTACCAATCTCAGAACAGATTTCAATGAAGTCTGAAGCTCGGCAAATGGTACTATCTGGAAATGGTTTTGAAGAAGATGTGATAGTCGTTCAAAAGAAAGGATTCCGTGTACGGCCCTGGAGTATTACTGTGGATCCAATCCGAGCGCTGATAGACACCACAATTATGGCAGTGGGATTATTAATAATGCTGGCCGTTATGACAATGAATATTGGGTATTTTATATCGGTTTTGATAGGCACATTTATTGGCAGCCTAGTTGTCGGGCGTTATTCTCCTGAATAA | 54 | – |
| 146 (nucleic acid, listed as Golovinomyces orontii, listed as DNA) ATGGCTCAATCCCCGGACAGTAAGGTAGAGAAAGTCTTTACGACAAATCACCTCGGAATTGGCAGGCTCCAAGGAAAGAACGCAATTGTGACCGGAGCAGCAGGTGGTATCGGCTTGGAAACATGCATTTTATTCGCCAGAGAAGGTGCCAATGTTCTTTTGGCCGACATTTCAGCTCCAGCCCTAGAAAAAGCATATGCCAAGATTGCTCAACTTGTACCTTCGGCTCGCAAGGTCGAGAAAATGCTATGTGATGTTTCCAAGGAGGGAGACGTCAAAGCTATGGTTGACCATGTTGATTCATGGGGTGGTGTTGACATTATTTTTAACAATGCGGGCATAATGCATGCTGATGATGCTGATGCAGTTGACACCCCTGAGAAGATTTGGGATCTCACTCAGGCTATCAACGTGAAAGGTGTCTGGTTCGGCTGCAAACATGCAGTCATCTCATTTCGAAAGCATAAAAAGTCAAAGGGCTGTGTCATCAATACAGCCTCTGTTGTTGCTTTGGTGGGATCTGCAACTCCACAACTTGCCTACACCGCGAGTAAAGGAGCTGTTCTAGCTCTAACGCGGGAGCTTGCAATTGTACATGCACGCGAGGCGCCGTTGAACACTCCCTTACTTCAGGATTGGCTTGGAGATGACCAGCCTAAGCGACTTCGTCGGGAAATTCATTTTCCATGTGGCCGCTTCGGCGAAGCTGTTGAACAAGCTCGTGCTGTTCTTTTCTTAGCTTCCGATGACGCCAATTTCATTAATGGGCAGGAATTTGTTGTCGATGGCGGAATGACTAAAGCATATGTGACTCCAGAAGGTCCCCCGACCGAGGCGCCTATAAATAACTCATTACTCTCTGAGCCAATCGATAATTTTAAGACCACTAACTCATCAGACATGGGAGTTTGA | 63 | 42 |
| 181 (nucleic acid, listed as Golovinomyces orontii, listed as DNA) ATGTCTAATCAGCTAAAACATCCCTCTTTACTCATTCCAGGCCCCGTTGAGATTGACGATGCTGTCCTTCACTCTATGAGCCATCACAGATCCTCATCTTACTGCAGTGAGAGCCATGTGGACATATCGTTTATAAAAACTTTTGGAAAAACGTTGTACATGCTCAGGAAGCTATTCCAATCTAATGATCCTTACTCTCAACCATTCGTAATTTCCGGATCTGGTACCCTAGGATGGGATCTAGTAGCCGCAAATTTAGCGGAACGCGGTGATGATGTCTTAGTATTACACACGGGTTACTTTGCAGACTCTTTCTCCGATTGCTTTGAGACCTACGGGATAAACGTCACACAGCTTATAGCTCCGATTGGTTCAAGACCCCAACTAATAGAGATTGAAGAAGAATTATCAAAAAAGACCTACAAACTTCTAACAGTGACCCATGTCGATACCTCGACTGGCGTATTAAATGAACTGGAGCCAATTTCAGAAATAGTTCATCGGGTTTCTCCTGAGACCCTTGTAATTGTTGATGGAGTGTGCAGTGTCGGGTCTGAGGAGATCGCTTTCGACTCCTGGAAACTCGATGGAGTTATCACTGCAAGCCAGAAAGCAATTGGTGCACCGGCTGGTCTTTCCATCTCAATTTTCAGTGGCCGTGCGATTCAGTCATTTAATGACCGACAGACTCCTCCTGGGTCTTACTATGCATCATTCAAGAATTGGATGCCTATCATGCAGAGCTATGAAGCCCAAGAGCCTTCATATTTTGCAACTCCATCCATTCATTTGATCCATGCACTTCACACCTCTTTAACGCAAATTCTCTCACGCCCTCTTTCAGAGCGGTTCACTATTCACAGAGAAATATCTCAAAGAGTAAAAGAAGCAGTTTCTGGAATGGGATTAACTCAGTTGGCTGCCAATCCTGAAAATCAAGCAAACGGAATGACAGCAATATATTTGCCAGATAATATTAAAGCGAAAGACCTTTTAACCAAGATACTTCAAAAAGGAGTTGTTCTTGCTGGTGGATTACATAAAGAAATTGCTCATAAGTATATTCGCTTTGGTCATATGGGGGTGAGCGTGACCAAGCCTGAAAGGGGTGATATTGAACGAGCTATCAAAGCTTTGGAGACAAGTCTTTCAGAGTTAGGATATCGTAGAGAGAAACAGTCTTAG | 62 | – |
| 179 (nucleic acid, listed as Golovinomyces orontii, listed as DNA) ATGCAGATCTCACGCATCACATTTATCTCTTTCTTCATCGCCCTTGTCGCGGCTCATCCAACTCTTAATGAACGACAAACAATTACCATCCCAAAAATTCCTGAAGTTCCAGCCGTCCCCGAAGTTCCCGCTGTTCCTGAAGTACAAAAGCGTCAACAGACGATAACTGTTCCCACGATCCCCACGATTCCTACCGTGCCAGATGTTCCTGCTGACACACGAATAAAGCTGTCCACAAACTCAATGGCTACGCCAAACTCTATGCTGGACAAGAGACCTGAAGTGTGGCATATCCATGATAACCGGATAACTGGTCGGAAAATATTCAAAGCTAAATGA | – | 41 |
| 140 (nucleic acid, listed as Golovinomyces orontii, listed as DNA) ATGCAATTCACTCAACTTCTCATCTTAGCCTTCGTCGCTTGCGTGGCTGCTACACCATCAGGATTGAACTTTTACGCGCGAAGAACTGACGGTGGAGACGACGAATCACCACAGACATGTACTCAGGCCCTACAAGCTATTCCCAAGTGCGCTCTGAGTTGCATCACACAACCCCCAATCGACGCCGGTTGCAAATCAGCTGCTGACTTCGCTTGCACCTGTGAGAAAAAGACCCAAAAACAAATTACAAAGGCAGAAACTCCTTGTGTTCTCAAGGCTTGCGGACTAAAAGAGGCACTTGCTGCTTCTAAGGCTGGAAAAGCTGTATGTGAGGCTTGCAACACATCCCCAAGCGACCCATCCGACGGTCACGGTGACGACGGAGATGACGATTCATACGATAGCTCTGATTCTGAATAA | 37 | 60 |
